Substrate: CCc1c2c(nc3ccc(O)cc13)-c1cc3c(c(=O)n1C2)COC(=O)[C@]3(O)CC
Test: purified protein
Details: UDPGA

B1: UGT1A1 (Homo sapiens) (protein)
chain: HAGKILLIPVDGSHWLSMLGAIQQLQQRGHEIVVLAPDASLYIRDGAFYTLKTYPVPFQREDVKESFVSLGHNVFENDSFLQRVIKTYKKIKKDSAMLLSGCSHLLHNKELMASLAESSFDVMLTDPFLPCSPIVAQYLSLPTVFFLHALPCSLEFEATQCPNPFSYVPRPLSSHSDHMTFLQRVKNMLIAFSQNFLCDVVYSPYATLASEFLQREVTVQDLLSSASVWLFRSDFVKDYPRPIMPNMVFVGGINCLHQNPLSQEFEAYINASGEHGIVVFSLGSMVSEIPEKKAMAIADALGKIPQTVLWRYTGTRPSNLANNTILVKWLPQNDLLGHPMTRAFITHAGSHGVYESICNGVPMVMMPLFGDQMDNAKRMETKGAGVTLNVLEMTSEDLENALKAVINDKSYKENIMRLSSLHKDRPVEPLDLAVFWVEFVMRHKGAPHLRPAAHDLTWYQYHSLDVIGFLLAVVLTVAFITFKCCAYGYRKCLGKKGRVKKAHKSKTH
Work on B1 yielded a Km of 2.5 ± 0.3 µM.
